Results from patent publication US20230093708A1, “PROTEIN NANOPARTICLE DESIGN AND APPLICATION” (Duke University, priority 2020, published 2023).

B1: RLP80-ELP80: RLP-ELP block co-polypeptide forming worm-like micelles (protein)
chain: QYPSDGRGQYPSDGRGQYPSDGRGQYPSDGRGQYPSDGRGQYPSDGRGQYPSDGRGQYPSDGRGQYPSDGRGQYPSDGRGQYPSDGRGQYPSDGRGQYPSDGRGQYPSDGRGQYPSDGRGQYPSDGRGQYPSDGRGQYPSDGRGQYPSDGRGQYPSDGRGQYPSDGRGQYPSDGRGQYPSDGRGQYPSDGRGQYPSDGRGQYPSDGRGQYPSDGRGQYPSDGRGQYPSDGRGQYPSDGRGQYPSDGRGQYPSDGRGQYPSDGRGQYPSDGRGQYPSDGRGQYPSDGRGQYPSDGRGQYPSDGRGQYPSDGRGQYPSDGRGQYPSDGRGQYPSDGRGQYPSDGRGQYPSDGRGQYPSDGRGQYPSDGRGQYPSDGRGQYPSDGRGQYPSDGRGQYPSDGRGQYPSDGRGQYPSDGRGQYPSDGRGQYPSDGRGQYPSDGRGQYPSDGRGQYPSDGRGQYPSDGRGQYPSDGRGQYPSDGRGQYPSDGRGQYPSDGRGQYPSDGRGQYPSDGRGQYPSDGRGQYPSDGRGQYPSDGRGQYPSDGRGQYPSDGRGQYPSDGRGQYPSDGRGQYPSDGRGQYPSDGRGQYPSDGRGQYPSDGRGQYPSDGRGQYPSDGRGQYPSDGRGQYPSDGRGQYPSDGRGGPGAGVPGGGVPGAGVPGGGVPGAGVPGGGVPGAGVPGGGVPGAGVPGGGVPGAGVPGGGVPGAGVPGGGVPGAGVPGGGVPGAGVPGGGVPGAGVPGGGVPGAGVPGGGVPGAGVPGGGVPGAGVPGGGVPGAGVPGGGVPGAGVPGGGVPGAGVPGGGVPGAGVPGGGVPGAGVPGGGVPGAGVPGGGVPGAGVPGGGVPGAGVPGGGVPGAGVPGGGVPGAGVPGGGVPGAGVPGGGVPGAGVPGGGVPGAGVPGGGVPGAGVPGGGVPGAGVPGGGVPGAGVPGGGVPGAGVPGGGVPGAGVPGGGVPGAGVPGGGVPGAGVPGGGVPGAGVPGGGVPGAGVPGGGVPGAGVPGGGVPGAGVPGGGVPGAGVPGGGVPGAGVPGGGVP
B2: RLP40-ELP80: RLP-ELP block co-polypeptide forming spherical micelles (protein)
chain: QYPSDGRGQYPSDGRGQYPSDGRGQYPSDGRGQYPSDGRGQYPSDGRGQYPSDGRGQYPSDGRGQYPSDGRGQYPSDGRGQYPSDGRGQYPSDGRGQYPSDGRGQYPSDGRGQYPSDGRGQYPSDGRGQYPSDGRGQYPSDGRGQYPSDGRGQYPSDGRGQYPSDGRGQYPSDGRGQYPSDGRGQYPSDGRGQYPSDGRGQYPSDGRGQYPSDGRGQYPSDGRGQYPSDGRGQYPSDGRGQYPSDGRGQYPSDGRGQYPSDGRGQYPSDGRGQYPSDGRGQYPSDGRGQYPSDGRGQYPSDGRGQYPSDGRGQYPSDGRGGAGVPGGGVPGAGVPGGGVPGAGVPGGGVPGAGVPGGGVPGAGVPGGGVPGAGVPGGGVPGAGVPGGGVPGAGVPGGGVPGAGVPGGGVPGAGVPGGGVPGAGVPGGGVPGAGVPGGGVPGAGVPGGGVPGAGVPGGGVPGAGVPGGGVPGAGVPGGGVPGAGVPGGGVPGAGVPGGGVPGAGVPGGGVPGAGVPGGGVPGAGVPGGGVPGAGVPGGGVPGAGVPGGGVPGAGVPGGGVPGAGVPGGGVPGAGVPGGGVPGAGVPGGGVPGAGVPGGGVPGAGVPGGGVPGAGVPGGGVPGAGVPGGGVPGAGVPGGGVPGAGVPGGGVPGAGVPGGGVPGAGVPGGGVPGAGVPGGGVPGAGVPGGGVPGAGVPGGGVPGAGVPGGGVPGAGVPGGGVPGAGVPGGGVPGAGVPGGGVPGAGVPGGGVPGAGVPGGGVPGAGVPGGGVPGAGVPGGGVPGAGVPGGGVPGAGVPGGGVPGAGVPGGGVPGAGVPGGGVPGAGVPGGGVPGAGVPGGGVPGAGVPGGGVPGAGVPGGGVPGAGVPGGGVPGAGVPGGGVPGAGVPGGGVPGAGVPGGGVPGAGVPGGGVPGAGVPGGGVPGAGVPGGGVPGAGVPGGGVPGAGVPGGGVPGAGVPGGGVPGAGVPGGGVPGAGVPGGGVPGAGVPGGGVPGAGVPGGGVPGAGVPGGGVPGAGVPGGGVPGAGVPGGGVPGAGVPGGGVPGAGVPGGGVPGAGVPGGGVPGAGVPGGGVPGAGVPGGGVPGAGVPGGGVPGAGVPGGGVPGAGVPGGGVPGAGVPGGGVP

Legend:
[1] = Temperature-programmed dynamic light scattering; assay type: physicochemical; details: between 4 °C and 37 °C; micelles 20-37 °C; 10 μM in 140 mM PBS
Method: Temperature-programmed dynamic light scattering experiments were carried out using a Dynapro plate reader (Wyatt Technology; Santa Barbara, Calif.) with samples filtered through 0.45 μm Millex-GV filters. Data were collected at increments of 1° C., and the cumulant fit hydrodynamic radius was taken as the radius. The Tt was defined as the temperature at which aggregates of size hundreds of nanometers were formed.
Each block co-polypeptide was analyzed by dynamic light scattering (DLS) at several temperatures between 4° C. and 37° C. to determine the thermal stability of the micelles, and to determine their radius of hydration (Rh). […] In contrast, RLP40-ELP80 (SEQ ID NO: 84) and RLP40-ELP80-Fn3 (SEQ ID NO: 96) self-assembled into micelles with a Rh of 30 and 32 nm, respectively, between 20-37° C. (FIG. 15).
Therefore, to get a more accurate picture, we monitored the Rh as we slowly cooled the solution. We observed two different overall behaviors. [S]-40-[QHN]-40 (SEQ ID NO: 100) upon cooling underwent a clear unimer to micelle transition at ˜55° C. and a clear micelle to aggregate transition at 28° C. (FIG. 32B). A unimer to micelle transition that is temperature dependent is known as the critical micellization temperature (CMT). As we know from before, this UCST aggregation temperature is dependent on the solution concentration. [S]-80-[QHN]-40 (SEQ ID NO: 101) remained a micelle at the highest temperature we could measure with the instrument. Upon cooling the size of the aggregate increased slightly until a clear aggregate transition at 18° C.

K562+αvβ3 cell line = experiment: Flow cytometry cell uptake of Alexa488-labeled micelles; assay type: cell-based; details: 10 μM, 37 °C, 2 hours
Method: Approximately 1×10^8 cells were harvested from either K562 or K562+αvβ3 cell lines and resuspended into 1 mL of serum-free medium containing 10 μM of the various Fn3-decorated and control block polypeptides. LM609 antibody was also resuspended at 10 μM in serum-free medium. Micelles were prepared from a mixture of ˜10% Alexa 488 dye-labeled RLP-ELP block co-polypeptides and 90% unlabeled polypeptides on a molar basis. The cells were incubated at 37° C. with the labeled micelles for a specified time, then rinsed with 1 mL of Hanks Buffered Saline Solution (HBSS), collected by centrifugation at 500 RCF for 5 min at 20° C., and resuspended in HBSS+1% BSA. Cells were maintained on ice until they were analyzed by flow cytometry (BD Accuri C5). The cell fluorescence intensity of Alexa 488 (Green) was quantified after gating to remove cellular debris on unstained control samples.
To assess the intracellular uptake of these particles, we used a cell line stably transfected with the αvβ3 integrin. The native cell line, K562, has endogenously low levels of expression of this receptor and therefore serves as the receptor-negative control, and the un-decorated RLPXX-ELP80 micelles serve as ligand-negative controls for each type—size and shape—of micelle. […]

[2] = Cryo-TEM micelle core size, inter-core spacing and aspect ratio; assay type: physicochemical; details: for Spacing (nm) / Core radius (nm): Table 2, mean ± standard deviation; for Spacing (nm): inter-core spacing; for Core radius (nm): 10 μM in 140 mM PBS; for Core Diameter (nm) [n = 30] / Intra-core Spacing (nm) [n = 30]: Table 8, 15 °C, 140 mM PBS, 10 μM
How it was run: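 Vitrified 10 μM RLPn-ELP80 (3 s blot, chamber at 15° C., 100% humidity) imaged by cryo-TEM at 80 keV. Core size and spacing measured manually on at least 25 particles; aspect ratio from the longest straight line of a particle and its perpendicular.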

[3] = Static and dynamic light scattering (SLS/DLS) of block co-polypeptides; assay type: physicochemical; details: for Nagg / Rg(nm) / Rh (nm) / ρ: Table 1; for Nagg / Rg(nm) / Rh (nm): 10 μM in PBS, 15 °C; for ρ: shape factor Rg/Rh
How it was run: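 Samples at 10 μM in PBS (140 mM NaCl, 10 mM phosphate, 3 mM KCl, pH 7.4), filtered 0.45 μm, measured at 15 °C over 30°–150° in 5° steps. Rh from cumulant fit of DLS, extrapolated to zero angle. Rg and MW from partial Zimm plots of SLS.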

Molecule	Rh (DLS at several temperatures) [1] [nm]	cell fluorescence (Geometric Mean±StDev) (K562+αvβ3 cell line)	core radius (cryo-TEM) [2]	spacing between particle cores (cryo-TEM) [2] [nm]	Spacing (nm) [2] [nm]	Core radius (nm) [2] [nm]	Core Diameter (nm) [n = 30] [2] [nm]	Intra-core Spacing (nm) [n = 30] [2] [nm]	aggregation number (Nagg) [3]	hydrodynamic radius (Rh) [3]	radius of gyration (Rg) [3]	shape factor / form factor (Rg/Rh) [3]	Nagg [3]	Rg(nm) [3] [nm]	Rh (nm) [3] [nm]	ρ [3]
B1	112	24904±13884	19.9 nm	34.7	34.7 ± 4.2	19.9 ± 2.8	39.4 ± 5.4	35.0 ± 4.5	in the thousands of chains	over 100 nm	above 140 nm	around 1.2	2240	145.4	114.3	1.27
B2	30	8686±8787	approximately 12.8 nm	29.5	29.5 ± 4.8	12.8 ± 1.8	24.3 ± 2.8	23.6 ± 4.5					68	29.9	33.3	0.89
